Source: publication PMC8825798 (Communications Biology, 2022)
“And” between values parts separate entries of the source, which are not always exact repeats. Identical values can stand only once.

What was measured:
Assay in all cases: BLI
Settings in all cases: both partners purified
[1] = biological target: T1, spike hepta-peptide Thr1273 → Gln (SARS-CoV-2, Gln^1273 (stands in the printed letters))
T1 peptide: GVKLHYQ

[2] = biological target: T2, spike hepta-peptide Thr1273 → Ala (1267Gly-Val-Lys-Leu-His-Tyr-Ala1273) (SARS-CoV-2, Thr^1273 → Ala (stands in the printed letters))
T2 peptide: GVKLHYA

[3] = biological target: T3, spike hepta-peptide Thr1273 → Glu (SARS-CoV-2, Thr^1273 → Glu (stands in the printed letters))
T3 peptide: GVKLHYE

[4] = biological target: T4, spike hepta-peptide Tyr1272 → Ala (1267Gly-Val-Lys-Leu-His-Ala-Thr1273) (SARS-CoV-2, Tyr^1272 → Ala (stands in the printed letters))
T4 peptide: GVKLHAT

[5] = biological target: T5, spike hepta-peptide Thr1273 → Val (SARS-CoV-2, Thr^1273 → Val (stands in the printed letters))
T5 peptide: GVKLHYV

[6] = biological target: T6, spike hepta-peptide Thr1273 → Arg (SARS-CoV-2, Arg^1273 (stands in the printed letters))
T6 peptide: GVKLHYR

B1: αCOPI-WD40 domain (residues 1-327) from Schizosaccharomyces pombe (domain or fragment)
chain: MEMLTKFESRSSRAKGVAFHPTQPWILTSLHNGRIQLWDYRMGTLLDRFDGHDGPVRGIAFHPTQPLFVSGGDDYKVNVWNYKSRKLLFSLCGHMDYVRVCTFHHEYPWILSCSDDQTIRIWNWQSRNCIAILTGHSHYVMCAAFHPSEDLIVSASLDQTVRVWDISGLRMKNAAPVSMSKEDQKAQAHNSKSNDKKGSTDAIVKFVLEGHDRGVNWCAFHPTLPLILSAGDDRLVKLWRMTASKAWEVDTCRGHFNNVSCCLFHPHQELILSASEDKTIRVWDLNRRTAVQTFRRDNDRFWFITVHPKLNLFAAAHDSGVMVFKLE
- Kd [1]: 780 nM and 1150 nM
- koff [1]: 0.066 s⁻¹
- kon [1]: 60000 M⁻¹ s⁻¹
- Kd [2]: 1130 nM and 1140 nM
- koff [2]: 0.076 s⁻¹
- kon [2]: 66700 M⁻¹ s⁻¹
- Kd [3]: 310 nM and 380 nM
- koff [3]: 0.024 s⁻¹
- kon [3]: 59000 M⁻¹ s⁻¹
- Kd [4]: 3770 nM and 2320 nM
- koff [4]: 0.28 s⁻¹
- kon [4]: 121000 M⁻¹ s⁻¹
- Kd [5]: 3200 nM and 2060 nM
- koff [5]: 0.212 s⁻¹
- kon [5]: 103000 M⁻¹ s⁻¹
- Kd [6]: 1730 nM and 1290 nM
- koff [6]: 0.177 s⁻¹
- kon [6]: 57600 M⁻¹ s⁻¹
